The source of these data is paper PMC9474862.

For this data set, the target named is APE1 WT (Homo sapiens) (UniProt P27695). The experiment in a line: EMSA. Conditions: apparent Kd, 1 mM EDTA, EMSA: 20 nM NCP, 10 mM HEPES pH 7.5, 25 mM NaCl, 1 mM DTT, 0.1 mg/mL BSA, 5% native PAGE, 0.2x TBE, 4 °C (gel), binding temperature not stated. On the technique in general: In EMSA bound probe runs differently from free probe, usually more slowly.
Chain of UniProt P27695 (P27695 whole entry): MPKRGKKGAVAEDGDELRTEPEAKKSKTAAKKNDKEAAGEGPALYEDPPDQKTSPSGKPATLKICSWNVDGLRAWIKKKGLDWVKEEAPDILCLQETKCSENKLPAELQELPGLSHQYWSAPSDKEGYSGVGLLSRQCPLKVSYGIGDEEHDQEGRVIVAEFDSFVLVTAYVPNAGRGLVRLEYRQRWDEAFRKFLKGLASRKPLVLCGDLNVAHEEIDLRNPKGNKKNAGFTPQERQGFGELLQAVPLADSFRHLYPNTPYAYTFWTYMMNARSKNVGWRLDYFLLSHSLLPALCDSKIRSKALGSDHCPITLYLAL

As to “ATCGAGAATCCCGGTGCCGAGGCCGCTCAATTGGTCGTAGACAGCTCTAGCACCGCTTAAACGCACGTACGCGCTGTCCCCCGCGTTTTAACCGCCAAGGGGATTACTCCCTAGTCTCCAGGCACGTGTCAGATATATACATNCGAT / ATCGGATGTATATATCTGACACGTGCCTGGAGACTAGGGAGTAATCCCCTTGGCGGTTAAAACGCGGGGGACAGCGCGTACGTGCGTTTAAGCGGTGCTAGAGCTGTCTACGACCAATTGAGCGGCCTCGGCACCGGGATTCTCGAT [AP-NCP-6.5]”, the Kd (one-site fit with ligand depletion, N in strand 1 = THF (AP site analog) at SHL-6.5, occluded) came to 20 nM. Turning to “ATCGAGAATCCCGGTGCCGAGGCCGCTCAATTGGTCGTAGACAGCTCTAGCACCGCTTAAACGCACGTACGCNCTGTCCCCCGCGTTTTAACCGCCAAGGGGATTACTCCCTAGTCTCCAGGCACGTGTCAGATATATACATCCGAT / ATCGGATGTATATATCTGACACGTGCCTGGAGACTAGGGAGTAATCCCCTTGGCGGTTAAAACGCGGGGGACAGCGCGTACGTGCGTTTAAGCGGTGCTAGAGCTGTCTACGACCAATTGAGCGGCCTCGGCACCGGGATTCTCGAT [AP-NCP0]”, the Kd (one-site fit with ligand depletion, N in strand 1 = THF (AP site analog) at SHL0 (dyad), occluded) came out at 20 nM. On to “ATCGAGAATCCCGGTGCCGAGGCCGCTCAATTGGTCGTAGACAGCTCTAGCACCGCTTAAACGCACGTACGCGCTGTCCCCCGCGTTTTAACCGCCAAGGGGATTACTCCCTAGTCTCCAGGCACGTGTCAGATATATNCATCCGAT / ATCGGATGTATATATCTGACACGTGCCTGGAGACTAGGGAGTAATCCCCTTGGCGGTTAAAACGCGGGGGACAGCGCGTACGTGCGTTTAAGCGGTGCTAGAGCTGTCTACGACCAATTGAGCGGCCTCGGCACCGGGATTCTCGAT [AP-NCP-6]”, for which, under “one-site fit with ligand depletion, N in strand 1 = THF (AP site analog) at SHL-6, solvent-exposed”, the Kd was determined as 17 nM.

With “ATCGAGAATCCCGGTGCCGAGGCCGCTCAATTGGTCGTAGACAGCTCTAGCACCGCTTAAACGCACGTACGCGCTGTCCCCCGCGTTTTAACCGCCAAGGGGATTACTCCCTAGTCTCCAGGCACGTGTCAGATATATACATCCGAT (double strand) [ND-NCP]”, the Kd (nonspecific binding, no AP site) stood at 71 nM.
